Tests used:
Settings in all cases: 20 nM; 72 h
[1] = system: MCF10A; test: one-nucleolus phenotype percent effect (relative to siNT 0% and siNOL11 100%); higher = more cells with one nucleolus (ribosome biogenesis inhibition)
Description: (§1)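 After 72 h, cells were fixed and stained with Hoechst and anti-fibrillarin, and nucleoli per nucleus were counted with CellProfiler. Values are plate-adjusted percent effect for the one-nucleolus and 5+ nucleoli phenotypes, normalised to siNT (0%) and to the positive controls siNOL11 or siKIF11 (100%), as the mean of biological triplicates. Percent viability is the nuclei count relative to siNT.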

[2] = system: MCF10A; test: 5+ nucleoli phenotype percent effect (relative to siNT 0% and siKIF11 100%); higher = more cells with five or more nucleoli
Description: as §1

[3] = system: MCF10A; test: percent viability (nuclei count relative to siNT); higher = more viable cells
Description: as §1

Row | Sequence | one-nucleolus phenotype percent effect [1] [%] | 5+ nucleoli phenotype percent effect [2] [%] | percent viability [3] [%]
1 | GGGUGAGGGCAGGUGGUU [hsa-miR-4710] | 17.1 | 22.2 | 19.2
2 | GGGUGCGGGCCGGCGGGG [hsa-miR-4466] | -13.2 | 12.7 | 51.3
3 | GGGUGGGGAUUUGUUGCAUUAC [hsa-miR-92a-2-5p] | 28.3 | -28.2 | 42.2
4 | GGGUUUGUAGCUUUGCUGGCAUG [hsa-miR-5087] | 4.68 | 6.11 | 26.6
5 | GGUAGAUUUUCCUUCUAUGGU [hsa-miR-376a-2-5p] | -26.7 | 62 | 71.5
6 | GGUAGUGAGUUAUCAGCUAC [hsa-miR-6073] | 2.63 | 18.3 | 71
7 | GGUAUCCGUUUGGGGAUGGU [hsa-miR-3713] | 11.4 | -27.6 | 23.5
8 | GGUCCAGAGGGGAGAUAGGUUC [hsa-miR-198] | -9.26 | 5.19 | 51.6
9 | GGUCGUAUGUGUGACGCCAUUU [hsa-miR-489-5p] | -3.74 | -3.91 | 63
10 | GGUCUAGGCCCGGUGAGAGACUC [hsa-miR-8078] | -3.5 | 10 | 21
11 | GGUGAGGCUAGCUGGUG [hsa-miR-4316] | 13.5 | -8.12 | 41.7
12 | GGUGCAGUGCUGCAUCUCUGGU [hsa-miR-143-5p] | -7.79 | -0.693 | 89.5
13 | GGUGGAUAUUCCUUCUAUGUU [hsa-miR-376c-5p] | 21.9 | -0.73 | 20.7
14 | GGUGGCCCGGCCGUGCCUGAGG [hsa-miR-663b] | -23.6 | 47.3 | 124
15 | GGUGGGAUGGAGAGAAGGUAUGAG [hsa-miR-4769-5p] | -13.3 | 33.7 | 77.6
16 | GGUGGGCUUCCCGGAGGG [hsa-miR-4417] | -24.2 | 35.5 | 77.8
17 | GGUGGGGCAAUGGGAUCAGGU [hsa-miR-3151] | -3.87 | 9.32 | 33.9
18 | GGUGGGGGCUGUUGUUU [hsa-miR-4447] | 38.7 | -20.8 | 24.5
19 | GGUGGGGGGUGUUGUUUU [hsa-miR-4472] | 9.55 | 11.6 | 40
20 | GGUGGUUGAGGCUGCAGUAAGU [hsa-miR-1273g-5p] | -13.4 | 22.4 | 49.2
21 | GGUUCCCUCUCCAAAUGUGUCU [hsa-miR-642b-5p] | 11.8 | 21.2 | 44.4
22 | GGUUCUUAGCAUAGGAGGUCU [hsa-miR-2116-5p] | 12.8 | -5.52 | 35.2
23 | GGUUGGGCAGUGAGGAGGGUGUGA [hsa-miR-3147] | -13.3 | 31 | 26
24 | GUAAGCAGGGGCUCUGGGUGA [hsa-miR-6792-5p] | 56.4 | -36.8 | 30.2
25 | GUAAGGGACCGGAGAGUAGGA [hsa-miR-6892-5p] | 20.5 | -29 | 22.3
26 | GUACCUUCUGGUUCAGCUAGU [hsa-miR-4724-3p] | -22.1 | 19.8 | 82.8
27 | GUAGAGGAGAUGGCGCAGGG [hsa-miR-877-5p] | -6.88 | 10.3 | 54.7
28 | GUAGAUUCUCCUUCUAUGAGUA [hsa-miR-376a-5p] | -7.97 | 11.8 | 24.5
29 | GUAGCACCUUGCAGGAUAAGGU [hsa-miR-5682] | -21.5 | 12.2 | 72.9

— the supplement of paper PMC10899765
